This is an account of results in patent US20070004636.

The test system of series [1] is human insulin promoter factor 1 (IPF-1), His and Xpress-tagged at the N-terminus.
In series [2] the test system is T1, human hepatocyte nuclear factor 4α (HNF-4α), His and Xpress-tagged at the N-terminus.
T1 sequence: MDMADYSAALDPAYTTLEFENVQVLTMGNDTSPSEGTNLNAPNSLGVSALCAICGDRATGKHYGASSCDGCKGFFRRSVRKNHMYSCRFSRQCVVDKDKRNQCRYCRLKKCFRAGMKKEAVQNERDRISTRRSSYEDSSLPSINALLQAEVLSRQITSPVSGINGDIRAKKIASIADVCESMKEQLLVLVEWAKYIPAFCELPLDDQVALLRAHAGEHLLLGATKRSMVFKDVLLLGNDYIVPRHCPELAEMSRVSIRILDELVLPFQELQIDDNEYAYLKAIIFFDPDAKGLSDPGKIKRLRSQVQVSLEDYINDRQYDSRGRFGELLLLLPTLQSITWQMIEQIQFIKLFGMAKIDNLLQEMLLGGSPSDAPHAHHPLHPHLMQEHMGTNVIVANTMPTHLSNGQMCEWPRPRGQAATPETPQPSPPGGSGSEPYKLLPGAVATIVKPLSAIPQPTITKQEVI

In series [3] the test system is human hepatocyte nuclear factor 1α (HNF-1α), His and Xpress-tagged at the N-terminus.
human hepatocyte nuclear factor 1α (HNF-1α), His and Xpress-tagged at the N-terminus, sequence (chain, as listed by the source): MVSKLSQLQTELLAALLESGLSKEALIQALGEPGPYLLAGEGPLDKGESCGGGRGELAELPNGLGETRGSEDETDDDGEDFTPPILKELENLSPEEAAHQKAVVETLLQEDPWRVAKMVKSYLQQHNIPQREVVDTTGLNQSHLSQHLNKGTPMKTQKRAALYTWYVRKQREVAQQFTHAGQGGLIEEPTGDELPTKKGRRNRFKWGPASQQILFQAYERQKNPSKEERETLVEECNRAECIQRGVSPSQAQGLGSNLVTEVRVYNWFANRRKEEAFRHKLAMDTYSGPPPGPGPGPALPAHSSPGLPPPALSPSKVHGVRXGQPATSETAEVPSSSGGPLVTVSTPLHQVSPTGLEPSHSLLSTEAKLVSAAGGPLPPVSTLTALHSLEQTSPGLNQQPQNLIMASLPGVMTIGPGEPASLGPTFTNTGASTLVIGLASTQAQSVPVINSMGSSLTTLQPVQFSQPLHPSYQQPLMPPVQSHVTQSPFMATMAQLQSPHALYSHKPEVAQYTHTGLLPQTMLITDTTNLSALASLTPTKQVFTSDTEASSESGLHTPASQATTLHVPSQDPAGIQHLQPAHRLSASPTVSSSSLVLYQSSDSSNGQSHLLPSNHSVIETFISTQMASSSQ

human insulin promoter factor 1 (IPF-1), His and Xpress-tagged at the N-terminus, sequence (chain, as listed by the source): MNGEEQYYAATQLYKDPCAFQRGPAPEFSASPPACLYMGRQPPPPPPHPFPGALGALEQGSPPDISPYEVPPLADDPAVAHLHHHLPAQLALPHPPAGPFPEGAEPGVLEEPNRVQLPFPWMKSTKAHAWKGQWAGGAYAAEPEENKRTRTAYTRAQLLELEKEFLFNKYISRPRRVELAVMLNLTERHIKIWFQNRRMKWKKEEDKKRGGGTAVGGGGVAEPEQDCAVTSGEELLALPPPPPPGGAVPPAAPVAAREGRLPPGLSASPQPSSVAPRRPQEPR

For the substance “human m-calpain coexpressed with calpain small subunit 1 in sf-9 insect cells (cell lysate)”, in series [1], the “in vitro protein degradation test, Western blotting with anti-IPF-1 antibody” value was “the degradation of human IPF-1 by human m-calpain was observed”. Also, the “in vitro protein degradation test, Western blotting with anti-HNF-4α antibody” value in series [2] is recorded as “the degradation of human HNF-4α by human m-calpain was observed”. For the same substance, the “in vitro protein degradation test, Western blotting with anti-HNF-1α antibody” value in series [3] is “the degradation of human HNF-1α by human m-calpain was observed”.

For “rabbit m-calpain, extracted from rabbit muscle (Protease, Calcium-Activated Neutral (calpain), Sigma Chemical Co.)”, the “in vitro protein degradation test, Western blotting with anti-Xpress and anti-IPF-1 antibody” value in series [1] is “the in vitro degradation of IPF-1 by each of human µ-calpain, rabbit m-calpain and rat m-calpain was observed”. Also, the “in vitro protein degradation test, Western blotting with anti-HNF-4α and anti-Xpress antibody” value in series [2] is reported as “the degradation of HNF-4α by rabbit m-calpain was observed”. The “in vitro protein degradation test, Western blotting with anti-Omni/M21 and anti-HNF-1α antibody” value in series [3] was “the in vitro degradation of HNF-1α by each of human µ-calpain, rabbit m-calpain and rat m-calpain was observed”.
